Results taken from the supplement of paper PMC10065799, “High-throughput profiling of sequence recognition by tyrosine kinases and SH2 domains using bacterial peptide display” (eLife, 2023).

Experiments:
AncSZ = test: phosphorylation enrichment, bacterial display (enrichment ratio); higher = better substrate or ligand; peptides without Tyr show the background
EPHB1 = EPHB1 (UniProt P54762); test: as above
EPHB2 = EPHB2 (UniProt P29323); test: as above
FGFR1 = FGFR1 (UniProt P11362); test: as above
FGFR3 = FGFR3 (UniProt P22607); test: as above
Fer (mouse) = test: as above
Fes = Fes (UniProt P07332); test: as above
Fyn = Fyn (UniProt P06241); test: as above
Hck = Hck (UniProt P08631); test: as above
Jak2 = Jak2 (UniProt O60674); test: as above
MERTK = MERTK (UniProt Q12866); test: as above
c-Abl (mouse) = test: as above
c-Src = test: as above
Grb2 SH2 = Grb2 SH2 (UniProt P62993); test: SH2 binding enrichment of the phosphorylated peptide, bacterial display (enrichment ratio); higher = better substrate or ligand; peptides without Tyr show the background
SHP2-C SH2 = test: as above
c-Src SH2 = test: as above
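Wherever SH2 binding enrichment of the phosphorylated peptide, bacterial display is given: peptide library displayed on the E. coli surface as eCPX fusions, selected cells deep-sequenced, score is each peptide's frequency after selection divided by its frequency in the input.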
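Wherever phosphorylation enrichment, bacterial display is given: 11-residue human phosphosite peptides and single-mutation variants displayed on the E. coli surface, counted by deep sequencing, each peptide's frequency after selection divided by its frequency in the unselected input library; frequency after pTyr selection over input frequency; kinase dosed for 20-30% of maximal phosphorylation in three min.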

Jak2, sequence (O60674 whole entry, looked up): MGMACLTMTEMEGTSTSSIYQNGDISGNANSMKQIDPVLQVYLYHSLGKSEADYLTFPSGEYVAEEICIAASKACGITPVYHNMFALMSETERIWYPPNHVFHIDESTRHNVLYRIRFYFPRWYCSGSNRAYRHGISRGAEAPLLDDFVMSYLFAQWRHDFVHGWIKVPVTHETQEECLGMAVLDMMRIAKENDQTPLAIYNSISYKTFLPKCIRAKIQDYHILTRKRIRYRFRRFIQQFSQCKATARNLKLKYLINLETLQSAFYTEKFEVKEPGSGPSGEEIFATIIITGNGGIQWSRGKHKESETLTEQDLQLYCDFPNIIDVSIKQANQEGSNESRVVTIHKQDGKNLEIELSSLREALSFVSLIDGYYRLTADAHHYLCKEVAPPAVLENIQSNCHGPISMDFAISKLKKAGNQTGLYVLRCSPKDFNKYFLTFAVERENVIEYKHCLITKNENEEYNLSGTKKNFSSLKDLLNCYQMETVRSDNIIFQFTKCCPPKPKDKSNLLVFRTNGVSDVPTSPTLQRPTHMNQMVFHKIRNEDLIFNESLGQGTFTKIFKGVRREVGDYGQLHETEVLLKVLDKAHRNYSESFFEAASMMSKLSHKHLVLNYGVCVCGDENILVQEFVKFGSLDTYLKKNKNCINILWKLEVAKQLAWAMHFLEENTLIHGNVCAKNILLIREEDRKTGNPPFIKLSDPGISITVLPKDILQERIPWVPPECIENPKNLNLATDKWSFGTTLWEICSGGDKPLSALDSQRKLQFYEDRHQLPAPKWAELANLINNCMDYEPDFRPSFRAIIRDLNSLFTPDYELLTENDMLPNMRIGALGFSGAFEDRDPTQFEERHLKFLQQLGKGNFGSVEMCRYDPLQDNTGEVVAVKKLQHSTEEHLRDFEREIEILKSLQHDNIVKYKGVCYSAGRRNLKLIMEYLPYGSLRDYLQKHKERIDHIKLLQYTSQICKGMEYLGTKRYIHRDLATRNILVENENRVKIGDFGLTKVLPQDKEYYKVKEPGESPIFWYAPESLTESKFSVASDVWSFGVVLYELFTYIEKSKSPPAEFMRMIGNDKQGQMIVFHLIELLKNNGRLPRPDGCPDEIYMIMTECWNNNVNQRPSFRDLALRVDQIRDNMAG
EPHB2, sequence (P29323 whole entry, looked up): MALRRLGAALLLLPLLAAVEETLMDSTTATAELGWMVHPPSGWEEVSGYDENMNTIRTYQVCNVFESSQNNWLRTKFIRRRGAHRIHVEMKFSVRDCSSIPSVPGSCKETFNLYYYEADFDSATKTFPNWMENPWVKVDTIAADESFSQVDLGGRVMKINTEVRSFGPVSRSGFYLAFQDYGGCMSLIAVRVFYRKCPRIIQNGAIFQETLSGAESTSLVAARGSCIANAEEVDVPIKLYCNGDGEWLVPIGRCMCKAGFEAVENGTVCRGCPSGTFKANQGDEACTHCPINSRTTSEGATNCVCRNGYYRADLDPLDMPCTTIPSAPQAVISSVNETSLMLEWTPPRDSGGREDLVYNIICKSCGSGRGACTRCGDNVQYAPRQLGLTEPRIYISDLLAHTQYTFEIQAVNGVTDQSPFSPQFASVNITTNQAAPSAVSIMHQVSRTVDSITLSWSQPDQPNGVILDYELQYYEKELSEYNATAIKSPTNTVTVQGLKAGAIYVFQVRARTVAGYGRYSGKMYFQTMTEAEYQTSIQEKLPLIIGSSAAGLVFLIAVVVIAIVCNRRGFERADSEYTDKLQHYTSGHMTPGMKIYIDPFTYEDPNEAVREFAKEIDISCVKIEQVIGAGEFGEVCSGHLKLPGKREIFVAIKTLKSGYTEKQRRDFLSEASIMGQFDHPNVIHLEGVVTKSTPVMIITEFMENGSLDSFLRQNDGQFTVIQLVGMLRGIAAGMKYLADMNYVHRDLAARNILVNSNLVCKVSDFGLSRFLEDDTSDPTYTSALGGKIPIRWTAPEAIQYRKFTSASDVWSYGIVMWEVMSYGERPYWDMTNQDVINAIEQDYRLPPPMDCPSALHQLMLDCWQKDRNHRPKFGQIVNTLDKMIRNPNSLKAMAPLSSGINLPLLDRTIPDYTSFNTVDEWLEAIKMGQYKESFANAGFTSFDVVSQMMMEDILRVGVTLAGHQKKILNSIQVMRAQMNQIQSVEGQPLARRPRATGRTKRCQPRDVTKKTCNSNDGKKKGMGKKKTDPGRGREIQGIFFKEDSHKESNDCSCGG
MERTK, sequence (Q12866 whole entry, looked up): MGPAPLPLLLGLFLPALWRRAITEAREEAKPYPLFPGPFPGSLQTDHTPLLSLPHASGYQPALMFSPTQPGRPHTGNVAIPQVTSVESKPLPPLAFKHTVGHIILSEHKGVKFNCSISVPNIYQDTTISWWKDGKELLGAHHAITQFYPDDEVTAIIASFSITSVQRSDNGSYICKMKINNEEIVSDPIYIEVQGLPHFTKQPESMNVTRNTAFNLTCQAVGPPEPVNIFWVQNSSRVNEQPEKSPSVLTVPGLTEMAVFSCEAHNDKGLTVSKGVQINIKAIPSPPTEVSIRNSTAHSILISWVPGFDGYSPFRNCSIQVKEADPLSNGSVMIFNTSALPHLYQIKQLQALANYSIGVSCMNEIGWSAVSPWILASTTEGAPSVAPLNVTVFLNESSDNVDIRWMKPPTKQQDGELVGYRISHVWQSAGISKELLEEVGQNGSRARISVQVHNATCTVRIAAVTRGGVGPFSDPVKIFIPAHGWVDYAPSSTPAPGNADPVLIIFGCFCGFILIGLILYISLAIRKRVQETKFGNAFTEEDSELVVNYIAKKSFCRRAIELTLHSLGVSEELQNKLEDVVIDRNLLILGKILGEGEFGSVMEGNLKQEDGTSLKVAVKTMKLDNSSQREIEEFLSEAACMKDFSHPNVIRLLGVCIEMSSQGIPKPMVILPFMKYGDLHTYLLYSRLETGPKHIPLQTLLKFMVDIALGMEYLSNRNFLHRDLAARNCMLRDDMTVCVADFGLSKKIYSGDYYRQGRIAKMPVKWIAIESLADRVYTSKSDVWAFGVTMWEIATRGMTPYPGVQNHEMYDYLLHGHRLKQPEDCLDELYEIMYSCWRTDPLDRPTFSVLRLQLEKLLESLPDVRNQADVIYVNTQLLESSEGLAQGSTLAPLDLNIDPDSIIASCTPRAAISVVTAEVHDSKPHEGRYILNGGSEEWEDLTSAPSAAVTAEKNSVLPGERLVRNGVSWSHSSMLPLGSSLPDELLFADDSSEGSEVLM
Fyn, sequence (P06241 whole entry, looked up): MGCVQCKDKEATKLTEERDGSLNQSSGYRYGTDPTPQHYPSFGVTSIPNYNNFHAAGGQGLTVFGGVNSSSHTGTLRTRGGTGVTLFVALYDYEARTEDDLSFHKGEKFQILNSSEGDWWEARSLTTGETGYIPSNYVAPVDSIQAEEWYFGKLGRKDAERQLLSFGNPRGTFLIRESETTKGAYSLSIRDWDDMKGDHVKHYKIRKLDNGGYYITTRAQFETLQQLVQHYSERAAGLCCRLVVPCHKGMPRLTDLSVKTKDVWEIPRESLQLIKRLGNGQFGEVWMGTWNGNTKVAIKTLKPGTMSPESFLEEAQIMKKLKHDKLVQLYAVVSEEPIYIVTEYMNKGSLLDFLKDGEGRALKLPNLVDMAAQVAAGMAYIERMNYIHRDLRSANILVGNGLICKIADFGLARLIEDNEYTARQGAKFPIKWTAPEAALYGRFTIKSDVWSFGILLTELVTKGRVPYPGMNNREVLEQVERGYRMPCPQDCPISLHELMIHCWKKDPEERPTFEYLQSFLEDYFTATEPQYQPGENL
FGFR1, sequence (P11362 whole entry, looked up): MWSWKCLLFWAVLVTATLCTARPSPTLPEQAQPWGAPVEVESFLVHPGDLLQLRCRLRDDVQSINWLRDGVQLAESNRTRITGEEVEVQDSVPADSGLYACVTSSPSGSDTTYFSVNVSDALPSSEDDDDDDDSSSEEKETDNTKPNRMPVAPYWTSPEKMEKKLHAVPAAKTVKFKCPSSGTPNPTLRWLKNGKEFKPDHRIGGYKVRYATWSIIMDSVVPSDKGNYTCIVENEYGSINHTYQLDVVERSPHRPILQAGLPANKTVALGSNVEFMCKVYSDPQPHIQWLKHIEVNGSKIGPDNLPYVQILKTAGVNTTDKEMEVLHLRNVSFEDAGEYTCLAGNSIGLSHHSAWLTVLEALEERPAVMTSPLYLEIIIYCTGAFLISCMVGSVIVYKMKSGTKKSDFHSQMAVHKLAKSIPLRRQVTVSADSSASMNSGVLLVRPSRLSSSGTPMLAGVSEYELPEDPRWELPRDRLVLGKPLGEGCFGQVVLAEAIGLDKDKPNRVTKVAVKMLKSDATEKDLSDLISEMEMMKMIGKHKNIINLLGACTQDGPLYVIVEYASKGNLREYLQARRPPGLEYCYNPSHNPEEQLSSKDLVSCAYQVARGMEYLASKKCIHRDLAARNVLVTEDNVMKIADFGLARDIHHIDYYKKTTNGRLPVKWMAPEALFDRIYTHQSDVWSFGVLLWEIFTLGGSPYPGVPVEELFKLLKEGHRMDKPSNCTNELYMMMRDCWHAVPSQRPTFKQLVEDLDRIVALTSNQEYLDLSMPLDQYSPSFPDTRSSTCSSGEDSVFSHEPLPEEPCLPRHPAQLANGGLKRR
Hck, sequence (P08631 whole entry, looked up): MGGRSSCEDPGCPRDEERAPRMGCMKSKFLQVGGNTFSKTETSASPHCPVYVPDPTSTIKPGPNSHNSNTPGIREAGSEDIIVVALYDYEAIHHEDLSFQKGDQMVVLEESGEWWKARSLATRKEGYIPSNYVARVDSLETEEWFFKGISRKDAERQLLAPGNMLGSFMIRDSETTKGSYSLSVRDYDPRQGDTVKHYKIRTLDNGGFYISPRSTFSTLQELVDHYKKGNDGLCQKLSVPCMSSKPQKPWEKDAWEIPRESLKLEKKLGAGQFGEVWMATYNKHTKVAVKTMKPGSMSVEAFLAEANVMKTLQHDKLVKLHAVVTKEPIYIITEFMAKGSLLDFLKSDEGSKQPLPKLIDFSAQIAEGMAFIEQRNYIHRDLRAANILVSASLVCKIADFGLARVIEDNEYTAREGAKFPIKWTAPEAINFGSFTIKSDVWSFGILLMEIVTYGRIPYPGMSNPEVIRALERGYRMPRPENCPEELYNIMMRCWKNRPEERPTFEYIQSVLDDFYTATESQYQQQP

Sequence	SH2 binding enrichment (Grb2 SH2)	SH2 binding enrichment (SHP2-C SH2)	SH2 binding enrichment (c-Src SH2)	phosphorylation enrichment (AncSZ)	phosphorylation enrichment (EPHB1)	phosphorylation enrichment (EPHB2)	phosphorylation enrichment (FGFR1)	phosphorylation enrichment (FGFR3)	phosphorylation enrichment (Fer (mouse))	phosphorylation enrichment (Fes)	phosphorylation enrichment (Fyn)	phosphorylation enrichment (Hck)	phosphorylation enrichment (Jak2)	phosphorylation enrichment (MERTK)	phosphorylation enrichment (c-Abl (mouse))	phosphorylation enrichment (c-Src)
HAKKNYGNSSV [HDX_Y197]	1.04	0.69	0.414	0.398	0.316	0.162	0.406	0.281	0.407	0.409	0.262	0.387	0.396	0.355	0.508	0.355
ERDYTYEELLN [EIF2S2_Y176]	0.823	0.737	1.1	1.31	0.78	0.718	0.579	0.855	0.65	1.28	0.886	1.32	1.18	0.426	0.67	0.807
PRLMLYNPTTY [EGFR_Y270_P266R]	1.16	1.14	0.686	0.922	0.889	0.905	0.731	0.776	0.7	1.21	0.601	0.692	1.08	0.649	0.812	0.526
LASLIYNFILF [AQP6_Y231_V234I]	0.993	1.04	1.02	2.67	2.51	1.28	4.45	4.49	19	3.72	13.3	11.5	2.98	14.7	5.49	12.7
LVSCTYQLARR [FGFR2_Y608_G613R]	0.851	0.484	0.401	1.57	0.816	1.28	0.788	0.793	0.896	1.33	0.699	0.891	1.36	0.861	0.721	0.438
SQQTYCRVSNM [ABCD1_Y181_Y181C]	0.897	0.616	1.01	0.799	3.76	1.98	0.587	0.683	0.526	0.88	0.751	1.41	0.623	0.738	0.851	0.718
RFGRKYKKVRF [F8_Y442_I438F]	0.724	0.564	0.374	0.708	0.572	0.551	0.653	0.651	0.619	0.841	0.82	0.674	0.884	1.04	0.806	0.988
KKHFSYAWPFF [BRDT_Y291_YF]	1.8	2.15	1.77	1.03	0.467	0.494	0.545	0.653	0.487	1.13	0.428	0.428	0.976	1.64	0.661	0.529
SRVNKYSTAFG [GJB3_Y16_G12R]	1.02	1.3	0.896	0.571	0.426	0.347	0.383	0.489	0.499	0.633	0.371	0.344	0.644	0.406	0.584	0.383

Continued, in another order:

SH2 binding enrichment (Grb2 SH2)	SH2 binding enrichment (SHP2-C SH2)	SH2 binding enrichment (c-Src SH2)	Sequence	phosphorylation enrichment (AncSZ)	phosphorylation enrichment (EPHB1)	phosphorylation enrichment (EPHB2)	phosphorylation enrichment (FGFR1)	phosphorylation enrichment (FGFR3)	phosphorylation enrichment (Fer (mouse))	phosphorylation enrichment (Fes)	phosphorylation enrichment (Fyn)	phosphorylation enrichment (Hck)	phosphorylation enrichment (Jak2)	phosphorylation enrichment (MERTK)	phosphorylation enrichment (c-Abl (mouse))	phosphorylation enrichment (c-Src)
1.54	1.09	1.46	RFLERYIFNRE [HLA-DPB1_Y57_YF]	0.786	0.324	0.363	0.329	0.543	0.356	0.914	0.311	0.44	0.748	0.409	0.627	0.432
0.956	0.674	0.512	HVPEEYKPKQG [SAXO2_Y37]	0.827	0.493	0.434	0.366	0.519	0.386	1.17	0.449	0.62	0.867	0.423	0.943	0.685
0.84	0.611	1.56	REGKIYEYNQV [ZNF665_Y162_H157R]	0.799	0.716	0.929	0.707	0.898	15.9	0.788	1.41	1.12	0.494	3.19	1.07	1.19
1.28	0.984	1.24	CNNFIYGGCRG [SPINT2_Y163]	0.543	0.361	0.404	0.455	0.382	0.371	0.699	3.89	3.35	0.591	0.391	0.442	5.21
1.42	2.78	4.38	CTTIHYNYMCT [TP53_Y234_N239T]	0.936	2.71	1.02	0.899	0.817	0.915	1	0.569	0.545	0.657	0.784	0.656	0.5
1.17	0.725	2.13	SNKLYYQLEQE [PDPR_Y110]	1.37	0.903	0.761	5.94	4.95	0.601	1.19	1.52	0.922	1.27	3.9	1.11	2.36
0.649	0.56	0.42	KTVQDYLKKFF [MMP8_Y36_E38K_YF]	1.07	0.473	0.371	0.523	0.545	0.563	1.05	0.575	0.494	0.795	0.494	0.66	0.488
